± gives the uncertainty stated by the source.
Assay: self-splicing fitness, log relative to wild type (ln ratio); higher = more splicing; Tetrahymena group I intron in knt gene, E. coli kanamycin selection, DiMSum; sequences stand for … in CUCUCU…GGAGGGAAAAGUUAUCAGGCAUGCACCUGGUAGCUAGUCUUUAAACCAAUAGAUUGCAUCGGUUUAAAAGGCAAGACCGUCAAAUUGCGGGAAAGGGGUCAACAGCCGUUCAGUACCAAGUCUCAGGGGAAACUUUGAGAUGGCCUUGCAAAGGGUAUGGUAAUAAGCUGACGGACAUGGUCCUAACCACGCAGCCAAGUCCUAAGUCAACAGAUCUUCUGUUGAUAUGGAUGCAGUUCACAGACUAAAUGUCGGUCGGGGAAGAUGUAUUCUUCUCAUAAGAUAUAGUCGGACCUCUCCUUAAUGGGAGCUAGCGGAUGAAGUGAUGCAACACUGGAGCCGCUGGGAACUAAUUUGUAUGCGAAAGUAUAUUGAUUAGUUUUGGAGUACUCGUGGUCG
How it was run: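 The eight P1ex-region nucleotides of an intron in the knt kanamycin-resistance gene on pET-22b(+) were all randomised and the library put into E. coli BL21(DE3). Six replicate transformations were grown overnight at 37°C or 30°C on LB agar with or without 25 μg/mL kanamycin, together with 100 μg/mL carbenicillin, 50 μM IPTG and 0.2% rhamnose. Colonies were pooled and amplicon-sequenced on an Illumina HiSeq 2500. Fitness from DiMSum is the error-weighted combination of wild-type-normalised replicate fold changes, kanamycin over none.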

Sequence	self-splicing fitness (ln) (30 °C)	self-splicing fitness (ln) (37 °C)
UCGCAGCAAUAUUACGGGGU	-3.73 ± 0.17	-2.72 ± 0.18
UCGCAGCAAUAUUACGGUAG	-2.49 ± 0.086	-0.887 ± 0.086
UCGCAGCAAUAUUACGGUAU	-3.36 ± 0.17	-1.78 ± 0.21
UCGCAGCAAUAUUACGUAGG	-0.74 ± 0.068	-0.377 ± 0.086
UCGCAGCAAUAUUACGUAGU	-2.58 ± 0.13	-2.85 ± 0.26
UCGCAGCAAUAUUACGUAUU	-3.64 ± 0.15	-1.85 ± 0.12
UCGCAGCAAUAUUACGUCAG	-1.59 ± 0.12	0.604 ± 0.15
UCGCAGCAAUAUUACGUGCU	-3.64 ± 0.16	-2.15 ± 0.17
UCGCAGCAAUAUUACGUUAC	-3.36 ± 0.36	-2.95 ± 0.25
UCGCAGCAAUAUUACGUUCC	-2.7 ± 0.23	–
UCGCAGCAAUAUUACGUUUC	-3.87 ± 0.2	-1.66 ± 0.12
UCGGAGCAAUAUUACGAACG	–	-1.54 ± 0.35
UCGGAGCAAUAUUACGAAUA	-2.32 ± 0.32	-1.27 ± 0.32
UCGGAGCAAUAUUACGACGC	-1.25 ± 0.25	-0.73 ± 0.22
UCGGAGCAAUAUUACGAUGU	-2.81 ± 0.17	-1.2 ± 0.13
UCGGAGCAAUAUUACGCAUU	–	-2.14 ± 0.27
UCGGAGCAAUAUUACGCCUU	-2.96 ± 0.29	-2.92 ± 0.43
UCGGAGCAAUAUUACGGACG	-1.65 ± 0.21	0.113 ± 0.17
UCGGAGCAAUAUUACGGAUU	-2.73 ± 0.27	-2.85 ± 0.38
UCGGAGCAAUAUUACGGCCG	-1.49 ± 0.31	–
UCGGAGCAAUAUUACGGCGG	-1.42 ± 0.11	-0.955 ± 0.17
UCGGAGCAAUAUUACGGGAU	-3.48 ± 0.25	-2.81 ± 0.38
UCGGAGCAAUAUUACGGUUC	–	-2.89 ± 0.43
UCGGAGCAAUAUUACGUCGA	-0.356 ± 0.42	-0.949 ± 0.3
UCGGAGCAAUAUUACGUGUU	-3.26 ± 0.24	-2.25 ± 0.26

Sequence	self-splicing fitness (ln) (30 °C)	self-splicing fitness (ln) (37 °C)
UCGGAGCAAUAUUACGUUCG	-1.19 ± 0.17	-1.27 ± 0.27
UCGUAGCAAUAUUACGAAGC	–	-1.29 ± 0.35
UCGUAGCAAUAUUACGACGG	-2.04 ± 0.2	-0.573 ± 0.19
UCGUAGCAAUAUUACGAGGA	-3.72 ± 0.39	-2.58 ± 0.29
UCGUAGCAAUAUUACGAUAA	-3.65 ± 0.26	-1.72 ± 0.2
UCGUAGCAAUAUUACGAUAG	–	-3.12 ± 0.38
UCGUAGCAAUAUUACGAUCG	-2.77 ± 0.23	-0.597 ± 0.18
UCGUAGCAAUAUUACGAUUA	-2 ± 0.3	-0.78 ± 0.17
UCGUAGCAAUAUUACGCCCA	-0.576 ± 0.14	0.129 ± 0.19
UCGUAGCAAUAUUACGCGCG	-1.62 ± 0.12	-1.34 ± 0.15
UCGUAGCAAUAUUACGCGUU	-2.91 ± 0.26	-2.18 ± 0.26
UCGUAGCAAUAUUACGCUGC	–	-2.48 ± 0.36
UCGUAGCAAUAUUACGGAUU	-2.08 ± 0.14	-2.85 ± 0.23
UCGUAGCAAUAUUACGGCAU	-3.93 ± 0.27	-2.53 ± 0.28
UCGUAGCAAUAUUACGGGUA	-1.57 ± 0.17	-0.425 ± 0.16
UCGUAGCAAUAUUACGGUCA	-0.782 ± 0.16	-0.0592 ± 0.13
UCGUAGCAAUAUUACGGUUG	-2.14 ± 0.12	-1.05 ± 0.15
UCGUAGCAAUAUUACGGUUU	-3.44 ± 0.14	-1.37 ± 0.11
UCGUAGCAAUAUUACGUAGG	-2.71 ± 0.17	-0.631 ± 0.15
UCGUAGCAAUAUUACGUGGC	-4.04 ± 0.16	-2.22 ± 0.12
UCGUAGCAAUAUUACGUGUC	-3.24 ± 0.25	-2.38 ± 0.25
UCUAAGCAAUAUUACGAAGC	-1.05 ± 0.39	-1.8 ± 0.36
UCUAAGCAAUAUUACGACUA	-3.07 ± 0.25	-0.59 ± 0.15
UCUAAGCAAUAUUACGCAUA	-1.86 ± 0.18	-2.33 ± 0.25
UCUAAGCAAUAUUACGCCCA	-1.48 ± 0.15	-0.486 ± 0.17

Sequence	self-splicing fitness (ln) (30 °C)	self-splicing fitness (ln) (37 °C)
UCUAAGCAAUAUUACGCUCG	-1.43 ± 0.2	-1.36 ± 0.18
UCUAAGCAAUAUUACGGCCA	-1.21 ± 0.22	-1.17 ± 0.21
UCUAAGCAAUAUUACGGCGA	-0.734 ± 0.086	-0.474 ± 0.092
UCUAAGCAAUAUUACGGCGU	-2.01 ± 0.11	-0.795 ± 0.11
UCUAAGCAAUAUUACGGGGG	-3.17 ± 0.22	-0.678 ± 0.17
UCUAAGCAAUAUUACGUCAU	-3.45 ± 0.2	-2.4 ± 0.16
UCUAAGCAAUAUUACGUCCA	-2 ± 0.14	-0.707 ± 0.13
UCUAAGCAAUAUUACGUCCC	–	-0.386 ± 0.41
UCUAAGCAAUAUUACGUCGA	-0.33 ± 0.088	0.0723 ± 0.11
UCUAAGCAAUAUUACGUCUA	-2.51 ± 0.33	-2.25 ± 0.4
UCUAAGCAAUAUUACGUCUG	-1.72 ± 0.16	-1.18 ± 0.19
UCUCAGCAAUAUUACGAAUU	-3.12 ± 0.13	-1.77 ± 0.15
UCUCAGCAAUAUUACGAGGA	-3.23 ± 0.26	-1.77 ± 0.14
UCUCAGCAAUAUUACGAGGG	-2.87 ± 0.11	-1.31 ± 0.12
UCUCAGCAAUAUUACGAGUC	-3.98 ± 0.18	-2.93 ± 0.18
UCUCAGCAAUAUUACGAUCU	-1.68 ± 0.14	-2 ± 0.2
UCUCAGCAAUAUUACGCAUG	–	-1.04 ± 0.45
UCUCAGCAAUAUUACGCCGC	-2.99 ± 0.34	-1.52 ± 0.36
UCUCAGCAAUAUUACGCGUC	-3.62 ± 0.27	-2.81 ± 0.29
UCUCAGCAAUAUUACGGAUU	-1.73 ± 0.097	-1.15 ± 0.11
UCUCAGCAAUAUUACGGUGA	-1.8 ± 0.13	-1.14 ± 0.12
UCUCAGCAAUAUUACGGUUC	-2.57 ± 0.21	-1.73 ± 0.34
UCUCAGCAAUAUUACGUAUC	-3.5 ± 0.24	-1.9 ± 0.25
UCUCAGCAAUAUUACGUCUC	-4.6 ± 0.31	-3 ± 0.23
UCUCAGCAAUAUUACGUGGU	-1.7 ± 0.1	-2.48 ± 0.16

Sequence	self-splicing fitness (ln) (30 °C)	self-splicing fitness (ln) (37 °C)
UCUCAGCAAUAUUACGUGUG	-2.33 ± 0.098	-2.27 ± 0.11
UCUCAGCAAUAUUACGUUCC	-2.72 ± 0.36	-0.417 ± 0.28
UCUGAGCAAUAUUACGAAGG	-3.05 ± 0.21	-0.953 ± 0.15
UCUGAGCAAUAUUACGAGAC	-2.52 ± 0.17	–
UCUGAGCAAUAUUACGAGCU	-2.99 ± 0.24	-2.23 ± 0.47
UCUGAGCAAUAUUACGAGGA	-3.8 ± 0.4	-3.29 ± 0.42
UCUGAGCAAUAUUACGAGUG	-3.98 ± 0.4	-1.24 ± 0.22
UCUGAGCAAUAUUACGAUAG	-3.28 ± 0.18	-1.93 ± 0.18
UCUGAGCAAUAUUACGAUCG	–	-0.514 ± 0.41
UCUGAGCAAUAUUACGCAAU	-2.13 ± 0.16	-2.97 ± 0.21
UCUGAGCAAUAUUACGCAUA	-2.73 ± 0.17	-1.19 ± 0.15
UCUGAGCAAUAUUACGCGCA	-2.16 ± 0.3	–
UCUGAGCAAUAUUACGCUGA	-1.89 ± 0.17	-0.151 ± 0.15
UCUGAGCAAUAUUACGGAUU	-3.51 ± 0.26	-1.72 ± 0.23
UCUGAGCAAUAUUACGGCCG	-2.7 ± 0.37	–
UCUGAGCAAUAUUACGGCGU	-1.82 ± 0.1	-0.983 ± 0.14
UCUGAGCAAUAUUACGGGAU	-2.35 ± 0.18	-2.54 ± 0.24
UCUGAGCAAUAUUACGGGGU	-4.62 ± 0.32	-2.28 ± 0.25
UCUGAGCAAUAUUACGGGUA	–	-2.42 ± 0.34
UCUGAGCAAUAUUACGGUCC	-2.51 ± 0.25	–
UCUGAGCAAUAUUACGGUGU	-2.79 ± 0.19	-1.84 ± 0.28
UCUGAGCAAUAUUACGGUUC	–	-2.51 ± 0.4
UCUGAGCAAUAUUACGGUUU	-3.14 ± 0.23	-1.4 ± 0.24
UCUGAGCAAUAUUACGUAUA	-2.36 ± 0.17	-2.39 ± 0.18
UCUGAGCAAUAUUACGUAUG	-3.07 ± 0.18	-2.07 ± 0.17

Reference: the supplement of paper PMC7877785
